“And” between values parts separate entries of the source, which are not always exact repeats. Equal entries are not always repeated.
Tests used:
[1] = molecular target: the molecule itself; assay: SEC-MALS; five-fold dilution series (1 mg/mL, 0.2 mg/mL, 0.04 mg/mL sample concentration)
[2] = molecular target: the molecule itself; assay: cell-based or functional assay
[3] = molecular target: the molecule itself; assay: not stated; oligomeric state of the purified deletion construct, Figure S4F (legend not shown)
[4] = molecular target: the molecule itself; assay: SAXS; SEC-SAXS, 45 μL at 3-12 mg/mL, Shodex KW-403, buffer E (20 mM Tris pH 8.0, 100 mM NaCl, 5 mM DTT); compared with curves calculated from the crystal structures
[5] = molecular target: the molecule itself; assay: native gel or EMSA; native PAGE of lysate of untreated HEK293 cells, immunoblotting for the endogenous protein; recombinant USP25 tetramer and dimer fractions as size standard

B1: Human USP25 (157-1055) (domain or fragment, UniProt Q9UHP3 157-1055, looked up)
chain: NPYDRKRQDKAPVGLKNVGNTCWFSAVIQSLFNLLEFRRLVLNYKPPSNAQDLPRNQKEHRNLPFMRELRYLFALLVGTKRKYVDPSRAVEILKDAFKSNDSQQQDVSEFTHKLLDWLEDAFQMKAEEETDEEKPKNPMVELFYGRFLAVGVLEGKKFENTEMFGQYPLQVNGFKDLHECLEAAMIEGEIESLHSENSGKSGQEHWFTELPPVLTFELSRFEFNQALGRPEKIHNKLEFPQVLYLDRYMHRNREITRIKREEIKRLKDYLTVLQQRLERYLSYGSGPKRFPLVDVLQYALEFASSKPVCTSPVDDIDASSPPSGSIPSQTLPSTTEQQGALSSELPSTSPSSVAAISSRSVIHKPFTQSRIPPDLPMHPAPRHITEEELSVLESCLHRWRTEIENDTRDLQESISRIHRTIELMYSDKSMIQVPYRLHAVLVHEGQANAGHYWAYIFDHRESRWMKYNDIAVTKSSWEELVRDSFGGYRNASAYCLMYINDKAQFLIQEEFNKETGQPLVGIETLPPDLRDFVEEDNQRFEKELEEWDAQLAQKALQEKLLASQKLRESETSVTTAQAAGDPEYLEQPSRSDFSKHLKEETIQIITKASHEHEDKSPETVLQSAIKLEYARLVKLAQEDTPPETDYRLHHVVVYFIQNQAPKKIIEKTLLEQFGDRNLSFDERCHNIMKVAQAKLEMIKPEEVNLEEYEEWHQDYRKFRETTMYLIIGLENFQRESYIDSLLFLICAYQNNKELLSKGLYRGHDEELISHYRRECLLKLNEQAAELFESGEDREVNNGLIIMNEFIVPFLPLLLVDEMEEKDILAVEDMRNRWCSYLGQEMEPHLQEKLTDFLPKLLDCSMEIKSFHEPPKLPSYSTHELCERFARIMLSLSRTPADGR
notes: source: E. coli Rosetta2(DE3)pLacI, purified (HisTrap, 3C protease, Resource Q, size exclusion)
In the case of B1, the “stoichiometry N” value [1] is reported as 4.

B2: Human USP25 (157-Δ(465-535)-714) (domain or fragment)
chain: NPYDRKRQDKAPVGLKNVGNTCWFSAVIQSLFNLLEFRRLVLNYKPPSNAQDLPRNQKEHRNLPFMRELRYLFALLVGTKRKYVDPSRAVEILKDAFKSNDSQQQDVSEFTHKLLDWLEDAFQMKAEEETDEEKPKNPMVELFYGRFLAVGVLEGKKFENTEMFGQYPLQVNGFKDLHECLEAAMIEGEIESLHSENSGKSGQEHWFTELPPVLTFELSRFEFNQALGRPEKIHNKLEFPQVLYLDRYMHRNREITRIKREEIKRLKDYLTVLQQRLERYLSYGSGPKRFPLVDVLQYALEFASSKPVGSGSGSAPRHITEEELSVLESCLHRWRTEIENDTRDLQESISRIHRTIELMYSDKSMIQVPYRLHAVLVHEGQANAGHYWAYIFDHRESRWMKYNDIAVTKSSWEELVRDSFGGYRNASAYCLMYINDKAQFLIQEEFNKETGQPLVGIETLPPDLRDFVEEDNQRFEKELEEWDAQLAQKALQE
notes: USP25, human, residues 536-714; source: E. coli Rosetta2(DE3)pLacI, purified (HisTrap, 3C protease, Resource Q, size exclusion)
With B2 the “Ub-KG-TAMRA cleavage activity against the tetrameric wild-type USP25 (157-714)” value [2] was 6 fold and the “stoichiometry N” value [3] was 2.

B3: Human USP28 (149-703) (domain or fragment, UniProt Q96RU2 149-703, looked up)
chain: PNPNDWRRVDGWPVGLKNVGNTCWFSAVIQSLFQLPEFRRLVLSYSLPQNVLENCRSHTEKRNIMFMQELQYLFALMMGSNRKFVDPSAALDLLKGAFRSSEEQQQDVSEFTHKLLDWLEDAFQLAVNVNSPRNKSENPMVQLFYGTFLTEGVREGKPFCNNETFGQYPLQVNGYRNLDECLEGAMVEGDVELLPSDHSVKYGQERWFTKLPPVLTFELSRFEFNQSLGQPEKIHNKLEFPQIIYMDRYMYRSKELIRNKRECIRKLKEEIKILQQKLERYVKYGSGPARFPLPDMLKYVIEFASTKPASESCPPESDTHMTLPLSSVHCSVSDQTSKESTSTESSSQDVESTFSSPEDSLPKSKPLTSSRSSMEMPSQPAPRTVTDEEINFVKTCLQRWRSEIEQDIQDLKTCIASTTQTIEQMYCDPLLRQVPYRLHAVLVHEGQANAGHYWAYIYNQPRQSWLKYNDISVTESSWEEVERDSYGGLRNVSAYCLMYINDKLPYFNAEAAPTESDQMSEVEALSVELKHYIQEDNWRFEQEVEEWEEEQSCKI
notes: also called USP28 catalytic domain; source: E. coli Rosetta2(DE3)pLacI, purified (HisTrap, 3C protease, Resource Q, size exclusion)
For B3, the “stoichiometry N” value [4] was 2.

B4: endogenous USP28 (enzyme, human (endogenous in HEK293), UniProt Q96RU2 1-1077, looked up)
chain: MTAELQQDDAAGAADGHGSSCQMLLNQLREITGIQDPSFLHEALKASNGDITQAVSLLTDERVKEPSQDTVATEPSEVEGSAANKEVLAKVIDLTHDNKDDLQAAIALSLLESPKIQADGRDLNRMHEATSAETKRSKRKRCEVWGENPNPNDWRRVDGWPVGLKNVGNTCWFSAVIQSLFQLPEFRRLVLSYSLPQNVLENCRSHTEKRNIMFMQELQYLFALMMGSNRKFVDPSAALDLLKGAFRSSEEQQQDVSEFTHKLLDWLEDAFQLAVNVNSPRNKSENPMVQLFYGTFLTEGVREGKPFCNNETFGQYPLQVNGYRNLDECLEGAMVEGDVELLPSDHSVKYGQERWFTKLPPVLTFELSRFEFNQSLGQPEKIHNKLEFPQIIYMDRYMYRSKELIRNKRECIRKLKEEIKILQQKLERYVKYGSGPARFPLPDMLKYVIEFASTKPASESCPPESDTHMTLPLSSVHCSVSDQTSKESTSTESSSQDVESTFSSPEDSLPKSKPLTSSRSSMEMPSQPAPRTVTDEEINFVKTCLQRWRSEIEQDIQDLKTCIASTTQTIEQMYCDPLLRQVPYRLHAVLVHEGQANAGHYWAYIYNQPRQSWLKYNDISVTESSWEEVERDSYGGLRNVSAYCLMYINDKLPYFNAEAAPTESDQMSEVEALSVELKHYIQEDNWRFEQEVEEWEEEQSCKIPQMESSTNSSSQDYSTSQEPSVASSHGVRCLSSEHAVIVKEQTAQAIANTARAYEKSGVEAALSEVMLSPAMQGVILAIAKARQTFDRDGSEAGLIKAFHEEYSRLYQLAKETPTSHSDPRLQHVLVYFFQNEAPKRVVERTLLEQFADKNLSYDERSISIMKVAQAKLKEIGPDDMNMEEYKKWHEDYSLFRKVSVYLLTGLELYQKGKYQEALSYLVYAYQSNAALLMKGPRRGVKESVIALYRRKCLLELNAKAASLFETNDDHSVTEGINVMNELIIPCIHLIINNDISKDDLDAIEVMRNHWCSYLGQDIAENLQLCLGEFLPRLLDPSAEIIVLKEPPTIRPNSPYDLCSRFAAVMESIQGVSTVTVK
notes: USP28, endogenous in untreated HEK293 cells; source: endogenous, HEK293 lysate
In the case of B4, the “stoichiometry N” value [5] is reported as 2.

B5: Human USP25 (1-714) (domain or fragment, UniProt Q9UHP3 1-714, looked up)
chain: MTVEQNVLQQSAAQKHQQTFLNQLREITGINDTQILQQALKDSNGNLELAVAFLTAKNAKTPQQEETTYYQTALPGNDRYISVGSQADTNVIDLTGDDKDDLQRAIALSLAESNRAFRETGITDEEQAISRVLEASIAENKACLKRTPTEVWRDSRNPYDRKRQDKAPVGLKNVGNTCWFSAVIQSLFNLLEFRRLVLNYKPPSNAQDLPRNQKEHRNLPFMRELRYLFALLVGTKRKYVDPSRAVEILKDAFKSNDSQQQDVSEFTHKLLDWLEDAFQMKAEEETDEEKPKNPMVELFYGRFLAVGVLEGKKFENTEMFGQYPLQVNGFKDLHECLEAAMIEGEIESLHSENSGKSGQEHWFTELPPVLTFELSRFEFNQALGRPEKIHNKLEFPQVLYLDRYMHRNREITRIKREEIKRLKDYLTVLQQRLERYLSYGSGPKRFPLVDVLQYALEFASSKPVCTSPVDDIDASSPPSGSIPSQTLPSTTEQQGALSSELPSTSPSSVAAISSRSVIHKPFTQSRIPPDLPMHPAPRHITEEELSVLESCLHRWRTEIENDTRDLQESISRIHRTIELMYSDKSMIQVPYRLHAVLVHEGQANAGHYWAYIFDHRESRWMKYNDIAVTKSSWEELVRDSFGGYRNASAYCLMYINDKAQFLIQEEFNKETGQPLVGIETLPPDLRDFVEEDNQRFEKELEEWDAQLAQKALQE
notes: USP25, human, residues 1-714; tetrameric and dimeric species side by side; source: E. coli Rosetta2(DE3)pLacI, purified (HisTrap, 3C protease, Resource Q, size exclusion)
For B5, the “stoichiometry N” value [1] was 4 and 2.
